Results published in the DeepSol protein solubility set.

assay: soluble on expression in E. coli; label from the status in PepcDB or PDB records

Q: For “MGSDKIHHHHHHVQYLDKLVSGLAVELHVPEGDYEGNYKTHVDEIGKTRLSVYAPHYQGMIIPLQEGTLVEVTFWDDVASYSFMSSVLQRVATPIPMFVLKMPDSIRRVQRRNYVRVSASFPITYQVVEREGLGDLLKGNMLDLSGGGMRFQAKVKLDKGSILYANLELPCGIIGTPGRVCRVEPIEDTKYFSVSVDFYQISERDRDRIIRCVFDIQRDLRKKGLI”, which “soluble on expression in E. coli” value is on record?
A: not soluble

Q: Which “soluble on expression in E. coli” value does the source give for “MGSDKIHHHHHHVRIAILSQGPQLYSTKRLVEAALARGHEVKVINPLKCYMNINMTKPSIHMAGKDLGHFDAVIPRIGASVTFYGSAVLRQFEMMGVYAVNGSIGIARSRDKLRSMQLLSRQGIGLPITGFANKPSDIPDLIDMVGGAPLVVKLLEGTQGIGVVLAETRKAAESVLEAFMGLKANIMVQEYIAEAQGADIRCFVLGDKVIAAMKRQAKPGEFRSNLHRGGSATLVKLTPEERSVALRAAKTMGLNIAGVDLLRSNHGPVVMEVNSSPGLEGIEKATQKDVADAIICFMEKNANKSIKSAQ” here?
A: not soluble

Q: For “MGSDKIHHHHHHVSGAILSGPEQKPDQDDIETALFRHLAQQGWCLSAPTPLAGGRSNHVWRAGDKVVKLYRSDAHNPLFANDPDRERAMLRALSGTGMAPRFLAHGLWQGQAWLMYTHVCGARWESDPSHVARILSIVHDQAKPRGLPFGCNGSEALAQQTRQIVSAASQGTTLLDRAPQGVVPPTSQLCLIHGDPVPGNIVAHNGTLALIDWQCPQLGDPAEDLALFLSPAMQLAYRGRVLSRQEEAEFVTAYPHPRVVARYYALKPWFHWRMAAYCAWRGETDARDLELAEI”, which “soluble on expression in E. coli” value is on record?
A: not soluble

Q: Which “soluble on expression in E. coli” value does the source give for “MGSDKIHHHHHHVSGPGLLPFRLTICGIDELPDHAAAGVSHVVTILDPQWPDPEHFALYPPHSRTIWRFHDIVNPQEGQAHPTMRDVEAILDYGTALKTETVEHLLIHCHMGISRSTATAIILMAQHNPGREAEAFTHLKAIRPFSWPNSRMVRMADDQLKRKGALVDAMRLHHHGVARRHPDKMAYLRTSERAAEVPPEE” here?
A: not soluble

Q: Which “soluble on expression in E. coli” value does the source give for “MGSDKIHHHHHHVSQLTPWQHYQQDLTRDDFSHDAAQEQAVKSLQRVYDELIVAAKPASSVSKLFSAIGIKSTPTPVKGLYLWGGVGRGKTYLMDTFFDALPTDRKLRAHFHRFMHQIHNDLGELKGVQDPLLTIAKKMASQYQIICFDEFFVSDITDAMLLGTLFQALFKEGVALVATSNIIPDELYKNGLQRVRFLPAIALINQHCEILNVDSGIDYRLRTLEQAEIYHYPLDEQADINLLHYFDQLAPESEKLTAPIDVDGRAIRIRQQSQGVLLINFRDLCDGPRSQRDYMEMACLYHTVLVSGLEQMGSQQTGDDIARRFLAMVDEFYERNVKLIISAQVELEHIYTDGQLNFEFRRCRSRLIEMQSREYLALEHLP” here?
A: not soluble

Q: Which “soluble on expression in E. coli” value does the source give for “MGSDKIHHHHHHVSSTIWTPTAVASEAAAIRFSLWRAVEGQHAVSTMVLVDSLEEQALLEQLLEGSKPPVPASANGLHWLLFTPFRYPPPPTGSRFRGPLDPGVFYGADEIETACAELGFWRWQFLMESPSLTALDPKPQTVFKVEVDTLTVDLRSPPFTESRALWIDPKSYAATQDLARSAREANIGAIRYESVRAPNRGGCGAILTPMAFAEPQPRDAQTWWLSVSRERVLWQRDDVLQRATFAFDTKAFCE” here?
A: not soluble

Q: With “MGSDKIHHHHHHVSTAVSTPPTRLQCPICGSERFGDFRSRVNVRCSGCGSFERSRLLWLVLSQLELEATGRPFFHVAPEIGIAKLLHARLGERYRAFDFSPDIYAKAKIPVGRLDLCSDLSGMATGSVGGFCHVHVLEHVRCNAALVLQQINRVLAPGGYHVFGVPFWSRQYREDLSSELTDADRLSRFGHEDHVRSFGDQDFTVMFGGAFEGMEAIPLSRLIEVEAAARCNIPPRALTLNNSHSLFVYRKPIP” as the sequence, how does the “soluble on expression in E. coli” value read?
A: not soluble

Q: Which “soluble on expression in E. coli” value does the source give for “MGSDKIHHHHHHVYRKIKAQDLRPGMYVVDVGLSWLENPYLYMTEGVLADEEAVGRVLSEGYEEAVIDLRRCLEGSVPDDLAELEPLTDAEHVSRAVSATADSPVSAVAQRVPVAQEMLAAKAIYSESITFVRGFMEGAREGRPVDLKAAEPLVEDIIQSVSRNAGALIGFAKLRAYDLYTYTHSLNVSLLAVAFGKYLGLDTVALRQIGLAGLFHDLGKALIPDFILNCPGRLTPEEFSVMKRHPVLGRDVLPGGGRIPDMVLEGMLQHHEKFNGTGYPAGLKGDAISEAGRIIAVVDVYDALTSKRPYKNAMLPNKALSILYSMAGEEFYPGYVEHFIKCIGIYPVGQIVRLNTGQVGVVSATDPAVPLRPEVIVVRDPLGRPAPPRLIRLADVISVSVTETLEAAHAGIDAARVLQDGAAS” here?
A: not soluble

Q: Which “soluble on expression in E. coli” value does the source give for “MGSDKIHHHHHHYATPEEYYKATGKKITEYHESPMLTKLVEEGKLPPVEQRLPEEPLVVQPVEKVGQFGGTWRRVWKGPSDRWGISKLIEVKLAFWDKEGGKLVPGLAKSWEVLENGRVYIFHLRKGVKWSDGAPYTAHDIVFWVNDIVGNDDITPSKPDWYNIGVKVEALDDYTVKFEFSKPYGLFLLKVPYGGFTGAPAHYLKQFHPKYTPMEEIEKKMVEGVHNTWVDLFNDKNDFLENTELPTLSPWKPITDPTEQFYILERNPYFWAVDIEGNQLPYIDYVRHEYVKNDEVILLKAISGEIDMQWRHIGGLGAGAGNFTLLMENSQSGGYRVLKWIAANGSASRISLNYAHSDEVLRKVFNDVRFRQALSLAINREEINEILFNGLAEPRQASLVSGSPYFDPEWEKAYAEYDPDRANKLLDEMGLKWDDKHEYRLLPDGRPLRFTITVTGQFHVDVWTMVKEYWKQIGVWVEIENLERSLFYERADAGDFDAMVWNMDRAAQPLSSPMVIFPGSENIADFWYIGWSGWISYYIDKNIRGVEPEEVPEGPEPPEVVYRLVDLYYQIASTPDPDKIKELMAEATKIHRENLWMIGTVGEDLSPAIAKNNFRNVPEFLVTDDVLRTPLNAMPMQFFIEQK” here?
A: not soluble

Q: With “MGSDKIHHHHHHYKDLSQLKSEVDRLCRLCPWDWTFFNGNCYFFSKSQRDWHDSMTACKEMGAQLVIIKSHEEQSFLQQTSKKNSYTWMGLSDLNKEGEWYWLDGSPLSDSFEKYWKKGQPNNVGGQDCVEFRDNGWNDAKCEQRKFWICKKIATTCLS” as the sequence, how does the “soluble on expression in E. coli” value read?
A: not soluble

Q: Which “soluble on expression in E. coli” value does the source give for “MGSLDLPYASSFKGGSETFLQNVFESILKTYLRKNPMAKTIWELVKSVDNEKISYDHFFFRTFKVDGYGIDSLASFFMDYGYKVGGRLDFPKKKVQVLWLSPPDVHFPDNGYGIGNGPLPRLVIAELLVEELSPESQEIIRKYLKPEGGKQAVLSSTLGSLIWEKPTSTDFNQLAKESEFAAWTLVYGYTMNHLAFAVHRLKHRFSDIKCVKEYFEENGFELNKDGGVLKVSEDSLLLQVSAMSEKLVVEFADGVTQIVPASYIEFVERLVLPQFKDMPCDEIKEFHRREGLEQASAYHIMESTRFTA” here?
A: soluble

Q: Which “soluble on expression in E. coli” value does the source give for “MGSLRLTERPHVRKARLWVKLSDGKEGWVRCDLCQRRCVIAPGKYGACGVRKNIGGELYTLVYGLLSASNIDPIEKKPLLHFYPGSTVLSISTVGCNFFCQFCQNFEISQSRLEKGLYGVYRTPEEVVRLALVYGADGITYTYNEPTIFFETVYDVAKEAKKHGLFNTMVTNGYMTPEAVDELGSLIDAATVDFKGGGDPEFYRKIMFVPDPEPIYEAILAMKDKGWWIEITNLVVPILGDKPEYVRRMARWIVENLGPEVPFHLLRFHPDYKLRHVPHTPVKTLEKLARIAMEEGLKHVYIGNVWGHPLEDTYCPKCGYKVVDREGFAIVEWRLTSDFRCPRCGYKLNFRGEYTPRNINYPMPVM” here?
A: not soluble

Q: For “MGSNELFTRSVYMQSSVYSNNSKSSTSSSSSNSIPTQSAPAMNAASSPSKEPAKQEKEDDKKEVEEKKEIEKSVEAKVEGKVKAKVESTQNTDNSQELKAPEEKPKKKKKKKSNLIVSASVEKLSIVPEKEDFSILEKKLREFNFYHGFLPREDLHTTLHNPGDFLLRVSEVVEGEHKVNREVILSLIPVSTVSKDEEDRKKVRNVVIKRVTNLFFCEITRTFESISDLVTYYTKNPGGCASGTFQLKHPILQQSWEFMHSDVTVGKVLGEGAFGKVCSGTLKLKDGTNVDVAIKMTKVSAFLSKMKIKEMMNEARFIRNFNHKNVVRLYGVAHHEQPLYILLELVKGGSLQDHMKKEKGAVSIVEKIKFCSGAGRGIEYLHQNNCIHRDIAARNCLLHEKEVKITDFGLSRTGPVYKMKTACKLPVKWLAPETLSTLSFSFATDTYSWGVTCYEVFADGVEPFFGIQNSVVKTDILANKFLQMPPTTPESIKKYMEASIFVEGSRRATMTSAIAEFEKIKSALERPPSDMLSVGAGAKKVMKLLKRNKQEKYSKGD”, which “soluble on expression in E. coli” value is on record?
A: not soluble

Q: With “MGSQKRLVQRVERKLEQTVGDAFARIFGGSIVPQEVEALLRREAADGIQSLQGNRLLAPNEYIITLGVHDFEKLGADPELKSTGFARDLADYIQEQGWQTYGDVVVRFEQSSNLHTGQFRARGTVNPDVETHPPVIDCARPQSNHAFGAEPGVAPMSDNSSYRGGQGQGRPDEYYDDRYARPQEDPRGGPDPQGGSDPRGGYPPETGGYPPQPGYPRPRHPDQGDYPEQIGYPDQGGYPEQRGYPEQRGYPDQRGYQDQGRGYPDQGQGGYPPPYEQRPPVSPGPAAGYGAPGYDQGYRQSGGYGPSPGGGQPGYGGYGEYGRGPARHEEGSYVPSGPPGPPEQRPAYPDQGGYDQGYQQGATTYGRQDYGGGADYTRYTESPRVPGYAPQGGGYAEPAGRDYDYGQSGAPDYGQPAPGGYSGYGQGGYGSAGTSVTLQLDDGSGRTYQLREGSNIIGRGQDAQFRLPDTGVSRRHLEIRWDGQVALLADLNSTNGTTVNNAPVQEWQLADGDVIRLGHSEIIVRMH” as the sequence, how does the “soluble on expression in E. coli” value read?
A: soluble

Q: Which “soluble on expression in E. coli” value does the source give for “MGSSHHHHHHGKTIFVIVPTNEEQVAFLEALAKQDELNFDWQNPPTEPGQPVVILIPSDMVEWFLEMLKAKGIPFTVYVEEGGSENLYFQGGGGGGRRGFTETVSPVAGFHIFTLFLLRELIEPWSQGQVRAQAARAREAQRRSFTTDIAMQYREKLD” here?
A: soluble

Q: With “MGSSHHHHHHMTLNQPEYFTKYENLHFHRDENGILEVRMHTNGSSLVFTGKTHREFPDAFYDISRDRDNRVVILTGSGDAWMAEIDFPSLGDVTNPREWDKTYWEGKKVLQNLLDIEVPVISAVNGAALLHSEYILTTDIILASENTVFQDMPHLNAGIVPGDGVHILWPLALGLYRGRYFLFTQEKLTAQQAYELNVVHEVLPQSKLMERAWEIARTLAKQPTLNLRYTRVALTQRLKRLVNEGIGYGLALEGITATDLRNN” as the sequence, how does the “soluble on expression in E. coli” value read?
A: soluble

Q: With “MGSSHHHHHHSSGLEVLFQGPHMETAIWIKNSKLPAVLVAAGAFDAAVQALSKQVGVVKLEPLKKYFTNIYEGCRTYIPSTPCELPAQLGYVRAYDDTVSEDQILPYVPGLDVVNEKMNEGYKNFKLNKPDIAIECFREAIYRITLLMVDDAEDEKLAHKILETAREYILGLSIELERRSLKEGNTVRMLELAAYFTKAKLSPIHRTNALQVAMSQHFKHKNFLQASYFAGEFLKIISSGPRAEQARKIKNKADSMASDAIPIDFDPYAKFDICAATYKPIYEDTPSVSDPLTGSKYVITEKDKIDRIAMISKIGAPASGLRIRV” as the sequence, how does the “soluble on expression in E. coli” value read?
A: soluble

Q: For “MGSSHHHHHHSSGLVPRGSHMKRSSPVILVSEDEYGKFDESTNSILVKGKMHHLGISRVIEPGDELIVSGKSFIVSDFSPMYFGRVIRRNTQIISEIDASYIIMRCGLRPGMDILEVGVGSGNMSSYILYALNGKGTLTVVERDEDNLKKAMDNLSEFYDIGNVRTSRSDIADFISDQMYDAVIADIPDPWNHVQKIASMMKPGSVATFYLPNFDQSEKTVLSLSASGMHHLETVELMKRRILVREGATRPASDDLTHTAFITFAIKKSGMVYRI”, which “soluble on expression in E. coli” value is on record?
A: soluble
